9 molecules from paper PMC4807272, “Structural Determinants of Oligomerization of the Aquaporin-4 Channel*” (The Journal of Biological Chemistry, 2016) can be followed below.

For data set [1], the target named is AQP4 I43A, C-terminal GFP fusion (UniProt P55087). Put plainly: native gel or EMSA; BN-PAGE (8% bis-tris gel, pH 7.0, on ice) of whole-cell lysates of transfected HEK293 cells in 1% Triton X-100 BN lysis buffer, then immunoblot (anti-AQP4 or anti-GFP) and densitometry; self-association: tetramer, dimer, monomer bands. (Mobility shift assays separate free from complexed probe on a gel.)

Data set [2] concerns the target AQP4 TM1 compound mutant (I43A/I47A/L50A/L51A/I57A), C-terminal GFP fusion (UniProt P55087). The data set is described as above.
In data set [3] the target is wild-type human AQP1 (human) (UniProt P29972). Described as above.
In data set [4] the target is AQP4 I43A, C-terminal GFP fusion (UniProt P55087). Put plainly: BN-PAGE and Western blotting, densitometry. As to conditions: Triton X-100-solubilized protein from HEK293 cells; 3 experimental repeats; read off a plot. A general note: Immunoblotting shows a protein as a band on a membrane.
Target sequence in this assay (P55087 whole entry, stated change not applied, the tested form may be a part): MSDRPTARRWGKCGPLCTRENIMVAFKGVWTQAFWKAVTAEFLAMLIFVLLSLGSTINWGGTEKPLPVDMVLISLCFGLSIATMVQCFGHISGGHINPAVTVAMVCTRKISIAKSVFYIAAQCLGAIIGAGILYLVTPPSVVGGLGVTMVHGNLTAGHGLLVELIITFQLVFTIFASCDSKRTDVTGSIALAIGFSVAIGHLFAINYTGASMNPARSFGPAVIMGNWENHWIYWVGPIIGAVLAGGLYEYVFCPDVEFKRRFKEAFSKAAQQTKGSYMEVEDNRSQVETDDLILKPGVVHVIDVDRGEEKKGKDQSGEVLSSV
In data set [5] the target is AQP4 TM1 compound mutant (I43A/I47A/L50A/L51A/I57A), C-terminal GFP fusion (UniProt P55087). In words: BN-PAGE and Western blotting, densitometry. The conditions noted are these: Triton X-100-solubilized protein from HEK293 cells; 3 experimental repeats; read off a plot.
Target sequence in this assay (P55087 whole entry I47A/L50A/L51A/I57A, stated change not applied, the tested form may be a part): as the sequence (P55087 whole entry, stated change not applied, the tested form may be a part) above, with I47A, L50A, L51A, I57A counted along it
Data set [6] concerns the molecule itself. Put plainly: native gel or EMSA; BN-PAGE (8% bis-tris gel, pH 7.0, on ice) of whole-cell lysates of transfected HEK293 cells in 1% Triton X-100 BN lysis buffer, then immunoblot (anti-AQP4 or anti-GFP) and densitometry; self-association: tetramer, dimer, monomer bands.

Changes are numbered by the printed parent chain. Names may count otherwise.

Molecule “AQP4 I43A, C-terminal GFP fusion (from UniProt P55087 1-323) (natural protein)” displayed a stoichiometry N in data set [1] of 4.

In data set [2], “AQP4 TM1 compound mutant (I43A/I47A/L50A/L51A/I57A), C-terminal GFP fusion (from UniProt P55087 1-323) (natural protein)” had a stoichiometry N of 4.

For “wild-type human AQP1 (from UniProt P29972 1-269) (natural protein)”, in data set [3], the stoichiometry N was determined as 4.

As for “wild-type human AQP4, C-terminal GFP fusion (from UniProt P55087) I43A”, in data set [4], the other: % tetrameric protein was 100%.

Regarding “wild-type human AQP4, C-terminal GFP fusion (from UniProt P55087) I43A; I47A; L50A; L51A; I57A”, in data set [5], the other: % tetrameric protein stood at 100%.

B1: AQP3 P181S/Y182K/N183R (natural protein, human, UniProt Q92482 1-292, looked up)
chain: MGRQKELVSRCGEMLHIRYRLLRQALAECLGTLILVMFGCGSVAQVVLSRGTHGGFLTINLAFGFAVTLGILIAGQVSGAHLNPAVTFAMCFLAREPWIKLPIYTLAQTLGAFLGAGIVFGLYYDAIWHFADNQLFVSGPNGTAGIFATYPSGHLDMINGFFDQFIGTASLIVCVLAIVDSKRNPVPRGLEAFTVGLVVLVIGTSMGFNSGYAVNPARDFGPRLFTALAGWGSAVFTTGQHWWWVPIVSPLLGSIAGVFVYQLMIGCHLEQPPPSNEEENVKLAHVKHKEQI
notes: aquaporin-3 (AQP3), human; DPYNN changed to DSKRN; The construct and its tag are not described; a GFP tag is surmised; also called AQP3 DSKRN mutant; source: HEK293, transfected, extracted with Triton X-100
For B1, the “stoichiometry N” value in data set [6] was 2.

B2: AQP3 P181E/Y182K/N183R (natural protein, human, UniProt Q92482 1-292, looked up)
chain: B1 chain with S181E
notes: aquaporin-3 (AQP3), human; DPYNN changed to DEKRN; The construct and its tag are not described; a GFP tag is surmised; also called AQP3 DEKRN mutant; source: HEK293, transfected, extracted with Triton X-100
Turning to B2, the “stoichiometry N” value in data set [6] is 2.

B3: wild-type AQP9 (natural protein, human, UniProt O43315 1-295, looked up)
chain: MQPEGAEKGKSFKQRLVLKSSLAKETLSEFLGTFILIVLGCGCVAQAILSRGRFGGVITINVGFSMAVAMAIYVAGGVSGGHINPAVSLAMCLFGRMKWFKLPFYVGAQFLGAFVGAATVFGIYYDGLMSFAGGKLLIVGENATAHIFATYPAPYLSLANAFADQVVATMILLIIVFAIFDSRNLGAPRGLEPIAIGLLIIVIASSLGLNSGCAMNPARDLSPRLFTALAGWGFEVFRAGNNFWWIPVVGPLVGAVIGGLIYVLVIEIHHPEPDSVFKTEQSEDKPEKYELSVIM
notes: aquaporin-9 (AQP9), human; The construct and its tag are not described; a GFP tag is surmised; source: HEK293, transfected, Triton X-100-extracted protein
For the molecule B3, in data set [6], the “stoichiometry N” value stood at 4.

B4: wild-type AQP10 (natural protein, human, UniProt Q96PS8 1-301, looked up)
chain: MVFTQAPAEIMGHLRIRSLLARQCLAEFLGVFVLMLLTQGAVAQAVTSGETKGNFFTMFLAGSLAVTIAIYVGGNVSGAHLNPAFSLAMCIVGRLPWVKLPIYILVQLLSAFCASGATYVLYHDALQNYTGGNLTVTGPKETASIFATYPAPYLSLNNGFLDQVLGTGMLIVGLLAILDRRNKGVPAGLEPVVVGMLILALGLSMGANCGIPLNPARDLGPRLFTYVAGWGPEVFSAGNGWWWVPVVAPLVGATVGTATYQLLVALHHPEGPEPAQDLVSAQHKASELETPASAQMLECKL
notes: aquaporin-10 (AQP10), human; The construct and its tag are not described; a GFP tag is surmised; source: HEK293, transfected, Triton X-100-extracted protein
On to B4, for which the “stoichiometry N” value in data set [6] came out at 4.

The stoichiometry N is a count of units in the complex or per binding partner.
